{"source": "patent US20250295737A1", "about": "(AstraZeneca / MedImmune, published 2025)", "binders": {"B1": {"name": "RELAX0117 (Fc fusion)", "chain 1": "QLYSALANKCCHVGCTKRSLARFCAAAGGGGSGGGGSGGGGSGGGGSACPPCPAPEFEGGPSVFLFPPKPKDTLMISRTPEVTCVVVDVSHEDPEVKFNWYVDGVEVHNAKTKPREEQYNSTYRVVSVLTVLHQDWLNGKEYKCKVSNKALPASIEKTISKAKGQPREPQVYTLPPCREEMTKNQVSLWCLVKGFYPSDIAVEWESNGQPENNYKTTPPVLDSDGSFFLYSKLTVDKSRWQQGNVFSCSVMHEALHNHYTQKSLSLSPGGGGGSGGGGSGGGGSGGGGGSQLYSALANKCCHVGCTKRSLARFC", "chain 2": "SWMEEVIKLCGRELVRAQIAICGMSTWSAAAGGGGSGGGGSGGGGSGGGGSACPPCPAPEFEGGPSVFLFPPKPKDTLMISRTPEVTCVVVDVSHEDPEVKFNWYVDGVEVHNAKTKPREEQYNSTYRVVSVLTVLHQDWLNGKEYKCKVSNKALPASIEKTISKAKGQPREPQVCTLPPSREEMTKNQVSLSCAVKGFYPSDIAVEWESNGQPENNYKTTPPVLDSDGSFFLVSKLTVDKSRWQQGNVFSCSVMHEALHNHYTQKSLSLSPGGGGGSGGGGSGGGGSGGGGGSSWMEEVIKLCGRELVRAQIAICGMSTWS"}, "B2": {"name": "RELAX0020 (Fc fusion)", "chain 1": "GGAGGACPPCPAPEFEGGPSVFLFPPKPKDTLMISRTPEVTCVVVDVSHEDPEVKFNWYVDGVEVHNAKTKPREEQYNSTYRVVSVLTVLHQDWLNGKEYKCKVSNKALPASIEKTISKAKGQPREPQVYTLPPCREEMTKNQVSLWCLVKGFYPSDIAVEWESNGQPENNYKTTPPVLDSDGSFFLYSKLTVDKSRWQQGNVFSCSVMHEALHNHYTQKSLSLSPGGGGGSGGGGSGGGGSGGGGGSSWMEEVIKLCGRELVRAQIAICGMSTWS", "chain 2": "GGAGGACPPCPAPEFEGGPSVFLFPPKPKDTLMISRTPEVTCVVVDVSHEDPEVKFNWYVDGVEVHNAKTKPREEQYNSTYRVVSVLTVLHQDWLNGKEYKCKVSNKALPASIEKTISKAKGQPREPQVCTLPPSREEMTKNQVSLSCAVKGFYPSDIAVEWESNGQPENNYKTTPPVLDSDGSFFLVSKLTVDKSRWQQGNVFSCSVMHEALHNHYTQKSLSLSPGGGGGSGGGGSGGGGSGGGGGSQLYSALANKCCHVGCTKRSLARFC"}, "B3": {"name": "RELAX0091 (Fc fusion)", "chain 1": "QLYSALANKCCHVGCTKRSLARFCAAAGGGGSGGGGSGGGGSGGGGSACPPCPAPEFEGGPSVFLFPPKPKDTLMISRTPEVTCVVVDVSHEDPEVKFNWYVDGVEVHNAKTKPREEQYNSTYRVVSVLTVLHQDWLNGKEYKCKVSNKALPASIEKTISKAKGQPREPQVYTLPPCREEMTKNQVSLWCLVKGFYPSDIAVEWESNGQPENNYKTTPPVLDSDGSFFLYSKLTVDKSRWQQGNVFSCSVMHEALHNHYTQKSLSLSPG", "chain 2": "SWMEEVIKLCGRELVRAQIAICGMSTWSAAAGGGGSGGGGSGGGGSGGGGSACPPCPAPEFEGGPSVFLFPPKPKDTLMISRTPEVTCVVVDVSHEDPEVKFNWYVDGVEVHNAKTKPREEQYNSTYRVVSVLTVLHQDWLNGKEYKCKVSNKALPASIEKTISKAKGQPREPQVCTLPPSREEMTKNQVSLSCAVKGFYPSDIAVEWESNGQPENNYKTTPPVLDSDGSFFLVSKLTVDKSRWQQGNVFSCSVMHEALHNHYTQKSLSLSPG"}, "B4": {"name": "RELAX0013 (ligand)", "chain 1": "DSWMEEVIKLCGRELVRAQIAICGMSTWS", "chain 2": "QLYSALANKCCHVGCTKRSLARFC"}, "B5": {"name": "RELAX0023 (Fc fusion)", "chain 1": "DKTHTCPPCPAPEFEGGPSVFLFPPKPKDTLMISRTPEVTCVVVDVSHEDPEVKFNWYVDGVEVHNAKTKPREEQYNSTYRVVSVLTVLHQDWLNGKEYKCKVSNKALPASIEKTISKAKGQPREPQVYTLPPCREEMTKNQVSLWCLVKGFYPSDIAVEWESNGQPENNYKTTPPVLDSDGSFFLYSKLTVDKSRWQQGNVFSCSVMHEALHNHYTQKSLSLSPGGGGGSGGGGSGGGGSGGGGGSQLYSALANKCCHVGCTKRSLARFC", "chain 2": "DKTHTCPPCPAPEFEGGPSVFLFPPKPKDTLMISRTPEVTCVVVDVSHEDPEVKFNWYVDGVEVHNAKTKPREEQYNSTYRVVSVLTVLHQDWLNGKEYKCKVSNKALPASIEKTISKAKGQPREPQVCTLPPSREEMTKNQVSLSCAVKGFYPSDIAVEWESNGQPENNYKTTPPVLDSDGSFFLVSKLTVDKSRWQQGNVFSCSVMHEALHNHYTQKSLSLSPGGGGGSGGGGSGGGGSGGGGGSSWMEEVIKLCGRELVRAQIAICGMSTWS"}, "B6": {"name": "RELAX0024 (Fc fusion)", "chain 1": "B5 chain 1 with Y129C, C134S, W146S, L148A, Y187V", "chain 2": "B5 chain 2 with C129Y, S134C, S146W, A148L, V187Y"}, "B7": {"name": "RELAX0021 (Fc fusion)", "chain 1": "B2 chain 2 with C130Y, S147W, A149L, V188Y", "chain 2": "B2 chain 1 with C135S, W147S, L149A, Y188V"}, "B8": {"name": "RELAX0022 (Fc fusion)", "chain 1": "B2 chain 2 with C130Y", "chain 2": "B2 chain 1 with C135S"}}, "note": "Changes are numbered by the printed parent chain."}
{"molecular_target": "T1, human RXFP2 (human, UniProt Q8WXD0 1-754)", "T1 sequence (Q8WXD0 whole entry)": "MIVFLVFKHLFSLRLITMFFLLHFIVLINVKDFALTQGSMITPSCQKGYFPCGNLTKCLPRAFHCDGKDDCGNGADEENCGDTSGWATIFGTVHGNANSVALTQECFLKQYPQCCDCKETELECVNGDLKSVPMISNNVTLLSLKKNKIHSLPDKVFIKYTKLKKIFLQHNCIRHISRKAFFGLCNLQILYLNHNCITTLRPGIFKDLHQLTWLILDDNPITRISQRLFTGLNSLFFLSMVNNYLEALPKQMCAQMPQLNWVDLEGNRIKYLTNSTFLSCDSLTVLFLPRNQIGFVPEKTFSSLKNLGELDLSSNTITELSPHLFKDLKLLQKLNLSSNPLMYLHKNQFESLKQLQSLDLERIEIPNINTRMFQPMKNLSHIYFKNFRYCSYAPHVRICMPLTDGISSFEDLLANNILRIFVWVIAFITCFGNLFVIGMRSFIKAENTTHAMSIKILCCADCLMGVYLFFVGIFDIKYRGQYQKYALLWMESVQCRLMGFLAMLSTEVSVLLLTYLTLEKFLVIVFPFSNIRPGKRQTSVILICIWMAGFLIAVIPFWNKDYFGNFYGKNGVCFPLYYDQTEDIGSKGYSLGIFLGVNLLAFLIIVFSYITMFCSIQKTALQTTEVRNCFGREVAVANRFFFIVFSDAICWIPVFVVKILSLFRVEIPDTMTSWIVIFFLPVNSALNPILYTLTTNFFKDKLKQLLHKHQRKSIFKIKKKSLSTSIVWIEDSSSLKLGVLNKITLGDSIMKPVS", "test": "cell-based or functional assay", "units": {"EC50 hRXFP2 (M), cAMP HTRF assay": "M"}}
{"binder": "B1", "EC50 hRXFP2 (M), cAMP HTRF assay": "1.61e-08"}
{"binder": "B2", "EC50 hRXFP2 (M), cAMP HTRF assay": "3.54e-08"}
{"binder": "B3", "EC50 hRXFP2 (M), cAMP HTRF assay": "> 1.09e-07"}
{"binder": "B4", "EC50 hRXFP2 (M), cAMP HTRF assay": "1.75e-09"}
{"binder": "B5", "EC50 hRXFP2 (M), cAMP HTRF assay": "3.24e-08"}
{"binder": "B6", "EC50 hRXFP2 (M), cAMP HTRF assay": "4.26e-08"}
{"molecular_target": "T2, mouse RXFP1 (mouse, UniProt Q6R6I7 1-758)", "T2 sequence (looked up)": "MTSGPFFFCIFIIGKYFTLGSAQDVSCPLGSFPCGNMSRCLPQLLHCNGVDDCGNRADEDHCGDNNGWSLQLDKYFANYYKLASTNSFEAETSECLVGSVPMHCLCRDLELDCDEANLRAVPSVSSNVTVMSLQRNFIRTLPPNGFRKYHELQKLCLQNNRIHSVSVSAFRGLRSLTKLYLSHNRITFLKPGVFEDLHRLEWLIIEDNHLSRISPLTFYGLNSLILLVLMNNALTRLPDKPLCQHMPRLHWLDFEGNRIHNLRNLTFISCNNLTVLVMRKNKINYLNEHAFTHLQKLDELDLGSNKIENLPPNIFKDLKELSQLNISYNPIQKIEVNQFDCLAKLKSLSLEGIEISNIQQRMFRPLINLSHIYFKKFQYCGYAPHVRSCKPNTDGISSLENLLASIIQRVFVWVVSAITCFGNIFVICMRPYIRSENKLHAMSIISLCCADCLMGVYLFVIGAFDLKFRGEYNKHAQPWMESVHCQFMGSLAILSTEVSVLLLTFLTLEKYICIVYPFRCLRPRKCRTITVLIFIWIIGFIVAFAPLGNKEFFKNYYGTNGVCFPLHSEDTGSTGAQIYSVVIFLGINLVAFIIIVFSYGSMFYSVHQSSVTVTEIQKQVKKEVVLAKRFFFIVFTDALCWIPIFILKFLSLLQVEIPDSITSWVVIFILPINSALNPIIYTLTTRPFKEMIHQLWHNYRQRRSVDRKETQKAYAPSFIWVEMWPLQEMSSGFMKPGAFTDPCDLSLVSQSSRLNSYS", "test": "cell-based or functional assay", "units": {"EC50 mRXFP1 (M), cAMP HTRF assay": "M"}}
{"binder": "B1", "EC50 mRXFP1 (M), cAMP HTRF assay": "1.74e-11"}
{"binder": "B2", "EC50 mRXFP1 (M), cAMP HTRF assay": "2.79e-11"}
{"binder": "B7", "EC50 mRXFP1 (M), cAMP HTRF assay": "4.14e-11"}
{"binder": "B8", "EC50 mRXFP1 (M), cAMP HTRF assay": "3.28e-11"}
{"binder": "B3", "EC50 mRXFP1 (M), cAMP HTRF assay": "2.88e-11"}
{"binder": "B4", "EC50 mRXFP1 (M), cAMP HTRF assay": "7.54e-13"}
{"binder": "B5", "EC50 mRXFP1 (M), cAMP HTRF assay": "3.27e-11"}
{"binder": "B6", "EC50 mRXFP1 (M), cAMP HTRF assay": "1.56e-11"}
{"molecular_target": "T3, human RXFP1 (human, UniProt Q9HBX9 1-757)", "T3 sequence (looked up)": "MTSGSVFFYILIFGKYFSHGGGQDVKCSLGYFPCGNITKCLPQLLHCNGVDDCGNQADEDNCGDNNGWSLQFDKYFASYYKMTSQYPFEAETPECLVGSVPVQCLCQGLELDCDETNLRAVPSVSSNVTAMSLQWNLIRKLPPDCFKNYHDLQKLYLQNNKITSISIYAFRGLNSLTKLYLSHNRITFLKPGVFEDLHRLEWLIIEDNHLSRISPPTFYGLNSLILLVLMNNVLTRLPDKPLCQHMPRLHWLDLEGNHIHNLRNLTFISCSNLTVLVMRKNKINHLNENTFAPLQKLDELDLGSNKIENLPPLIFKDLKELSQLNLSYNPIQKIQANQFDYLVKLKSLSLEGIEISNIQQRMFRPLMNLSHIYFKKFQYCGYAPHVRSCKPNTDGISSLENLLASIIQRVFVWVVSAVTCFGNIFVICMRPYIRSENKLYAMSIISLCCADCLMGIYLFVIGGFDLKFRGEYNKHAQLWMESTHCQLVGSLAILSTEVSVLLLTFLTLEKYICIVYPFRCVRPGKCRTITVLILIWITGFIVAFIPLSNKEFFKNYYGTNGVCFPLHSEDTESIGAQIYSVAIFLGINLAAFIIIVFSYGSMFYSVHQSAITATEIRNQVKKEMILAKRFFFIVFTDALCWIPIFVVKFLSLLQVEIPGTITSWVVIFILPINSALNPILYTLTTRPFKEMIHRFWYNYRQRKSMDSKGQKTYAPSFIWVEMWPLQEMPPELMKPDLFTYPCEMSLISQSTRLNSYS", "test": "cell-based or functional assay", "units": {"EC50 hRXFP1 (M), cAMP HTRF assay": "M"}}
{"binder": "B1", "EC50 hRXFP1 (M), cAMP HTRF assay": "1.06e-11"}
{"binder": "B2", "EC50 hRXFP1 (M), cAMP HTRF assay": "4.41e-11"}
{"binder": "B7", "EC50 hRXFP1 (M), cAMP HTRF assay": "8.27e-11"}
{"binder": "B8", "EC50 hRXFP1 (M), cAMP HTRF assay": "4.74e-11"}
{"binder": "B3", "EC50 hRXFP1 (M), cAMP HTRF assay": "5.88e-11"}
{"binder": "B4", "EC50 hRXFP1 (M), cAMP HTRF assay": "1.15e-12"}
{"binder": "B5", "EC50 hRXFP1 (M), cAMP HTRF assay": "3.77e-11"}
{"binder": "B6", "EC50 hRXFP1 (M), cAMP HTRF assay": "4.6e-11"}
{"molecular_target": "T1, human RXFP2", "test": "cell-based or functional assay", "remark": "another data set of the same source", "units": {"EC50 hRXFP2 (M), cAMP HTRF assay": "M"}}
{"binder": "B4", "EC50 hRXFP2 (M), cAMP HTRF assay": "1.75e-09"}
{"binder": "B5", "EC50 hRXFP2 (M), cAMP HTRF assay": "4.2e-08"}
{"molecular_target": "T2, mouse RXFP1", "test": "cell-based or functional assay", "remark": "another data set of the same source", "units": {"EC50 mRXFP1 (M), cAMP HTRF assay": "M"}}
{"binder": "B4", "EC50 mRXFP1 (M), cAMP HTRF assay": "7.54e-13"}
{"binder": "B5", "EC50 mRXFP1 (M), cAMP HTRF assay": "1.36e-11"}
{"molecular_target": "T3, human RXFP1", "test": "cell-based or functional assay", "remark": "another data set of the same source", "units": {"EC50 hRXFP1 (M), cAMP HTRF assay": "M"}}
{"binder": "B4", "EC50 hRXFP1 (M), cAMP HTRF assay": "1.15e-12"}
{"binder": "B5", "EC50 hRXFP1 (M), cAMP HTRF assay": "3.32e-11"}
{"molecular_target": "T1, human RXFP2", "test": "cell-based or functional assay", "remark": "another data set of the same source", "units": {"EC50 hRXFP2 (M), cAMP HTRF assay": "M"}}
{"binder": "B4", "EC50 hRXFP2 (M), cAMP HTRF assay": "1.75e-09"}
{"molecular_target": "T2, mouse RXFP1", "test": "cell-based or functional assay", "remark": "another data set of the same source", "units": {"EC50 mRXFP1 (M), cAMP HTRF assay": "M"}}
{"binder": "B4", "EC50 mRXFP1 (M), cAMP HTRF assay": "7.54e-13"}
{"molecular_target": "T3, human RXFP1", "test": "cell-based or functional assay", "remark": "another data set of the same source", "units": {"EC50 hRXFP1 (M), cAMP HTRF assay": "M"}}
{"binder": "B4", "EC50 hRXFP1 (M), cAMP HTRF assay": "1.15e-12"}
